From paper PMC8284666, “Biochemical characterization of protease activity of Nsp3 from SARS-CoV-2 and its inhibition by nanobodies” (PLoS ONE, 2021)

Target: T1, Biotinylated AVI-PLpro wild type (SARS-CoV-2 Nsp3 743-1072) (SARS-CoV-2, Wuhan-Hu-1 (MN908947.3), UniProt P0DTD1, biotin (BirA biotinylation of the Avi tag))
T1 construct: also called biotinylated PLpro; WT PLpro^CoV-2
Experiment: flow cytometry on cells
Conditions: one partner purified

B1: NbSL17, displayed on yeast (VHH)
VHH: QVQLQESGGGLVQAGGSLRLSCAASGSISDSTRMGWYRQAPGKERELVATITYGSTTYYADSVKGRFTISRDNAKNTVYLQMNSLKPEDTAVYYCAAFDENVYVYRPYHYYWGQGTQVTVSS
Does B1 bind?
Result: binds

B2: NbSL19, displayed on yeast (VHH)
VHH: QVQLQESGGGLVQAGGSLRLSCAASGSIFFQAYMGWYRQAPGKERELVAGIDAGTTTYYADSVKGRFTISRDNAKNTVYLQMNSLKPEDTAVYYCAAEYFWNYNPYRGTNSTHPYWGQGTQVTVSS
Does B2 bind?
Result: binds
